Results: article doi:10.1101/2021.03.23.436578 (bioRxiv, 2021)

Biological target: the molecule itself
Test: mass photometry

B1: Cavin1 (1-190) (domain or fragment, UniProt O54724 1-190, looked up)
chain: MEDVTLHIVERPYSGFPDASSEGPEPTQGEARATEEPSGTGSDELIKSDQVNGVLVLSLLDKIIGAVDQIQLTQAQLEERQAEMEGAVQSIQGELSKLGKAHATTSNTVSKLLEKVRKVSVNVKTVRGSLERQAGQIKKLEVNEAELLRRRNFKVMIYQDEVKLPAKLSVSKSLKESEALPEKEGDELGE
B1 was tested, and the “stoichiometry N” value was 3.
